Experimental data from patent US20230213527A1 (QUANTUM SI, published 2023).

Assays:
Assay in all cases: single-molecule on-chip NAA recognition-only assay; immobilized peptide, dye-labeled recognizer in solution
[1] = biological target: peptide with N-terminal IAA (C-terminal azidolysine conjugated to DNA-streptavidin linker)
Protocol: (§1) The semiconductor chip was placed in the sequencing device and a chip check was performed to test electronic circuit function and to optimize laser coupling alignment. The chip was then removed from the device socket and the chip was washed twice with 50 μL of 70% isopropanol, followed by four washes with 30 μL of wash buffer (50 mM MOPS pH 8.0, 60 mM potassium acetate, 50 mM glucose, 20 mM magnesium acetate, and surfactant mix) through a flow cell attached to the chip. A second chip check was then performed. The laser was then blocked via an integrated software-controlled shutter, peptide complex was added to a final concentration of 1-10 nM and mixed thoroughly, and the chip was incubated for 15 min. The chip was then washed six times with wash buffer, followed by addition of an imaging solution (wash buffer with 5 mM Trolox and an oxygen scavenging system). The laser was unblocked and the occupancy percentage (target 10-30%, Poisson distributed) was recorded by acquiring a photobleaching signal from a fluorophore attached to the peptide complex during 5 min of laser illumination. For NAA recognition-only assays, after peptide loading, labeled recognizer was added to a final concentration of 50 nM PS610, 100 nM PS691, or 250 nM PS961 (as indicated according to the experiment), and data was recorded for 10 hours. For dynamic sequencing assays, after peptide loading, a mixture of labeled recognizers was added to obtain final concentrations of 50 nM PS610, 100 nM PS691, and 250 nM PS961. Data was recorded for 15 min. The laser was then blocked briefly and aminopeptidases were added to the sequencing reaction via the flow cell and mixed thoroughly (final concentration 2-8 μM PhTET2 and/or 20-80 μM PhTET3, as indicated according to the experiment). The laser was then unblocked, and data was recorded for 10 hours. For all runs, 30 μL of mineral oil was added to fluid reservoirs at each port of the flow cell to prevent evaporation during the run.

[2] = biological target: peptide with N-terminal VAA (C-terminal azidolysine conjugated to DNA-streptavidin linker)
Protocol: as §1

[3] = biological target: peptide with N-terminal LAA (C-terminal azidolysine conjugated to DNA-streptavidin linker)
Protocol: as §1

B1: PS961 (designed binder)
chain: MPTAASATESAIEDTPAPARPEVDGRTKPKRQPRYHVVLWDDDDHTYQYVVVMLRSLFGHPPSRGYRMAKEMDTQGRVIVLTTTREHAELKRDQIHAFGRDRLLARSKGSMKASIEAEE
notes: also called PS961 (L, I, V); PS961 (LIV)
median pulse duration (PD) [1]: 0.28 s
median pulse duration (PD) [2]: 0.21 s
median pulse duration (PD) [3]: 1.21 s
